{"source": "paper PMC5222566", "about": "“The Ciliopathy-Associated Cep104 Protein Interacts with Tubulin and Nek1 Kinase” (Structure(London, England:1993), 2017)", "target": "tubulin (Cytoskeleton) (UniProt P02550 1-451)", "assay": "SEC-MALS; TOG protein mixed with reconstituted tubulin, each ~42 uM, 1:1; 25 mM Tris-HCl pH 7.5, 100 mM NaCl, 1 mM MgCl2, 1 mM EGTA", "conditions": "both partners purified", "data": [{"binder": "human Cep104 TOG domain (Cep104^367-685), wild type (domain or fragment, UniProt O60308 367-685, looked up, The crystallised TOG construct (392-676, PDB 5LPH) has other limits; also called WT TOG; source: E. coli Rosetta, purified (Ni-NTA, PreScission cleavage, HiTrap SP); not shown: His6, N-terminal, cleaved) DPHPKINAESLPYDERPLPAIRKHYGEAVVEPEMSNADISDARRGGMLGEPEPLTEKALREASSAIDVLGETLVAEAYCKTWSYREDALLALSKKLMEMPVGTPKEDLKNTLRASVFLVRRAIKDIVTSVFQASLKLLKMIITQYIPKHKLSKLETAHCVERTIPVLLTRTGDSSARLRVTAANFIQEMALFKEVKSLQIIPSYLVQPLKANSSVHLAMSQMGLLARLLKDLGTGSSGFTIDNVMKFSVSALEHRVYEVRETAVRIILDMYRQHQASILEYLPPDDSNTRRNILYKTIFEGFAKIDGRATDAEMRARRK", "values": [{"measurement": "stoichiometry N", "value": 1}]}]}
